Common to all, as to assay: MST
Experiment [1] deals with CurKC lyase domain (residues 1–217) (Thermomonospora curvata DSM43183).
The target in experiment [2] is AciKC lyase domain (residues 1–219).
Experiment [3] has as its target CurKC leader recognition domain (LRD, residues 222–309), GB1 tag removed (Thermomonospora curvata DSM43183).
In experiment [4] the target is CurKC kinase domain (residues 218–489) (Thermomonospora curvata DSM43183).
Experiment [5] concerns the target CurKC, class III lanthipeptide synthetase from the biosynthesis of curvopeptin (full-length) (Thermomonospora curvata DSM43183).
Experiment [6] deals with CurKC lyase-kinase didomain (residues 1–489) (Thermomonospora curvata DSM43183).

The values that follow come from publication PMC9828337.

“CurKC leader recognition domain (LRD, residues 222–309), GB1 tag removed (domain or fragment)”: the Kd in experiment [1] was 139 µM.
As for “CurKC kinase domain (residues 218–489) (domain or fragment)”, the Kd turned out to be 170 µM in experiment [1] and 209 µM in experiment [2].
Consider “AciKC kinase domain (residues 220–495) (domain or fragment)”, for which the Kd came out at 14.8 µM in experiment [1] and 43.9 µM in experiment [2].
For CurA leader peptide, the dissociation constant (Kd) turned out to be 1.2 mM in experiment [3], 801 µM in experiment [4], 5.5 µM in experiment [5] and 84 µM in experiment [6].
